Test results published in the supplement of paper PMC10567573.
± gives the standard deviation.

Experiment: protein stability index of a GFP-peptide fusion (GPS, HEK-293T) (PSI 1-6); higher = more stable
Settings: c terminus: a fixed tail appended
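Also: 24-mer peptide tiles fused after GFP, lentivirally expressed, FACS-sorted into six equal bins by GFP/DsRed ratio, decoded by Illumina sequencing, PSI is the read-weighted mean bin number.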

Sequence | protein stability index (treatment: DMSO) | protein stability index (treatment: MLN4924 1 uM, 8 h)
VSKTLPSTWSDPSVNISLDNLLPG [CLINT1] | 3.35 ± 0.17 | 3.56 ± 0.16
HVLIHNTLQQLQAALRLAPAPALP [SERTAD3] | 2.51 ± 0.47 | 2.55 ± 0.2
IKALFRKGKVLAQQGEYSEAIPIL [FKBP8] | 2.54 ± 0.38 | 2.36 ± 0.42
ASTTRLYLRKGRGETRICKIYDSP [RAD51] | 2.94 ± 0.4 | 3.19 ± 0.31
GTPMGTFAPLWEVFRVSSDKLALC [FCHO1] | 2.23 ± 0.63 | 2.17 ± 0.41
KSSSVDSELTSLCQSVLEDFNLCL [SMG5] | 2.95 ± 0.25 | 2.97 ± 0.3
HQKLEREARICRLLKHSNIVRLHD [CAMK2B] | 2.58 ± 0.17 | 2.66 ± 0.43
VKTGEDGSNLDDAKGLAESLELPK [FANCE] | 5.44 ± 0.18 | 5.49 ± 0.14
FYFENLWSRNSKPVHTTILNPHIH [CAMK2A] | 2.33 ± 0.51 | 2.5 ± 0.45
EIENVKKQASNLETAIADAEQRGD [KRT71] | 5.29 ± 0.49 | 5.42 ± 0.3
SSDRSRDSSHERTESQLTPCIRNV [BTBD10] | 5.06 ± 0.065 | 5 ± 0.2
QQPPQQQPSQQQQPPPQEEPGTPS [KLHL14] | 5.67 ± 0.13 | 5.61 ± 0.4
GAVAPMDFTTAAEDQPINLCDKLP [NOL4L] | 4.7 ± 0.1 | 4.77 ± 0.34
FDGTAHLSSVEAYNIRTDSWTTVT [KLHL12] | 2.58 ± 0.38 | 2.62 ± 0.52
DDPSLLKEAKTKYPNYEFISDNSI [FUT8] | 3.58 ± 0.36 | 4.04 ± 0.53
LHAVADIHCENCKTTLGWKYEQAF [YPEL3] | 2.38 ± 0.49 | 2.14 ± 0.46
MERRRLRGSIQSRYISMSVWTSPR [PRAME] | 2.64 ± 0.28 | 2.73 ± 0.38
LDKKVEKVTISNRLVSSPCCIVTS [HSP90AB1] | 3.28 ± 0.34 | 2.98 ± 0.27
KATFMYEQFPELMNMLWSRMLKDN [CLINT1] | 2.28 ± 1.1 | 2.37 ± 0.4
YSSEDSTLASVPPAATFGADDLVL [ELF3] | 4.5 ± 0.13 | 4.48 ± 0.22
QPPVPSLSEVKPPPPPPPAQTFLF [TRADD] | 3.41 ± 0.49 | 3.44 ± 0.12
VLCLIVLPLALYTATFAVHFMVLS [POMT2] | 3.17 ± 0.19 | 3.34 ± 0.43
MSIVIPLGVDTAETSYLEMAAGSE [KMT2E] | 2.76 ± 0.51 | 2.74 ± 0.39

Sequence | protein stability index (treatment: DMSO) | protein stability index (treatment: MLN4924 1 uM, 8 h)
LLPLVTLCDGNPRRPSPVLRHLEL [SCNN1D] | 2.42 ± 0.42 | 2.27 ± 0.46
ITMYAVGVGKAIEEELQEIASEPT [MATN2] | 3.18 ± 0.13 | 3.16 ± 0.19
QRDEQLRALQERLGQQQRDMRRDE [FBF1] | 5.39 ± 0.28 | 5.33 ± 0.31
NHLDPFGHIILNSMHKYQPRLHIV [TBX5] | 2.31 ± 0.23 | 2.08 ± 0.52
VSAYVDTTADLDRKLSFSHSDHSS [SPATS1] | 3.83 ± 0.1 | 4.08 ± 0.24
DEEVSSLTCDALTELLAKITNTDV [CCND2] | 4.04 ± 0.44 | 4.28 ± 0.078
ALDEAAAALTRMRAESTANAGQSD [ANKRD17] | 5.49 ± 0.17 | 5.36 ± 0.25
ILDTAGTEQFTAMRDLYMKNGQGF [RAP1B] | 3.29 ± 0.36 | 3.46 ± 0.36
LLRRSVEGASSDNGCEVKNRKSIL [PHTF1] | 3.99 ± 0.17 | 4.05 ± 0.55
DFGLAKEYIDPETKKHIPYREHKS [CSNK1G1] | 4.26 ± 0.34 | 4.34 ± 0.086
VLLGEPLVVMAPSPSESSETVLAL [DENND6A] | 2.82 ± 0.36 | 2.52 ± 0.34
QFLKELLLKPHSYGRFIRWLNKEK [SPDEF] | 2.28 ± 0.43 | 2.21 ± 0.25
QSEESDQGKYECVATNSAGTRYSA [PTPRD] | 5.23 ± 0.33 | 5.23 ± 0.34
RAMHLMKKREKQREQMEQMKQRIA [FAM50A] | 3.27 ± 0.24 | 3.51 ± 0.14
RYPELDTPKLDCFLSGMEAAPRTL [TBX6] | 3.5 ± 0.27 | 3.58 ± 0.2
NIDETCGRHHSQSTEVQAHPYSTT [TEKT4] | 4.62 ± 0.091 | 4.54 ± 0.07
DEMCANNDFVQVDPGQVGLINSNV [FAN1] | 4.82 ± 0.2 | 4.78 ± 0.35
IERSKIVSTMRCKTRQKSEKQMEE [PPEF2] | 4.5 ± 0.21 | 4.5 ± 0.1
TPASQSPKKPPAKDPLADLNIKDF [SNAP91] | 5.06 ± 0.092 | 4.87 ± 0.25
QGASESQAPGEENLLGEAAGGQDM [HDAC6] | 5.54 ± 0.22 | 5.45 ± 0.2
CASFIRTRLLLQFTQPQQTSFALE [C8orf76] | 2.46 ± 0.28 | 2.7 ± 0.58
KSPDNEDSGDSKDIRLTLMEEVLL [GOLPH3L] | 3.82 ± 0.3 | 4.07 ± 0.19
PYFRAMFTGELAESRQTEVVIRDI [KLHL20] | 2.77 ± 0.25 | 3.09 ± 0.19

Sequence | protein stability index (treatment: DMSO) | protein stability index (treatment: MLN4924 1 uM, 8 h)
ARLRPGLAVLGADERIFSLTRRLA [HAGHL] | 2.47 ± 0.14 | 2.78 ± 0.27
NQVSSNSWGIAGETELALVKESGE [DLC1] | 5.17 ± 0.41 | 5.23 ± 0.2
RKRMGTRRGRHEQSPTSRPRKVSS [C22orf15] | 4.7 ± 0.25 | 4.59 ± 0.13
STPRPSITPTKKIELDRTIMPDGT [C2CD2L] | 4.76 ± 0.24 | 4.87 ± 0.17
LHFIATNYLIFSQKPEFQDLSVEE [RHOBTB3] | 2.5 ± 0.77 | 2.15 ± 0.38
MKALLGSYAHSVEDTHVQIGQVHE [FCHO1] | 3.62 ± 0.091 | 3.6 ± 0.25
RLRGLLRVLRGRPGAGSRRRGRMA [FBXO33] | 2.6 ± 0.61 | 3.14 ± 0.69
ESCEEKNQLILTASADRTVIVWDG [WDR41] | 4.01 ± 0.085 | 3.79 ± 0.1
AAWCLHHICTNYNSVCSKFRKEIK [RHOBTB1] | 2.23 ± 0.037 | 2.19 ± 0.28
GKSILLFGGAAAVAILAVAIGVAL [BCL2L13] | 2.98 ± 0.057 | 2.87 ± 0.3
DYRKQLQYPNPLPVLSGAELEKAH [VPS39] | 4.5 ± 0.15 | 4.41 ± 0.12
QIAQLEASLAAAKKQLADETLLKV [LMNB1] | 2.72 ± 0.65 | 2.8 ± 0.46
KIQNHGHRVLQRLEQRRQQASERE [FCHSD1] | 4.28 ± 0.28 | 4.51 ± 0.075
FNIVYIYTSELYPTVIRNVGLGTC [SLC22A15] | 3.07 ± 0.23 | 3.07 ± 0.62
LTRLRTASGHEPGGSAVCASRVKL [PLEKHN1] | 3.63 ± 0.17 | 3.61 ± 0.28
IIVNLLWFIHLVFVVLAFLTGVLC [TMEM192] | 2.78 ± 0.58 | 2.3 ± 0.48
PNVIEYYENFLEDKALMIAMEYAP [NEK8] | 2.32 ± 0.21 | 2.25 ± 0.21
YMVRRYFNKPSRVPAPEAFRDPIW [MYORG] | 2.27 ± 0.25 | 2.12 ± 0.39
SPTSGKFRRGSGSACSLLCCCGRD [MCOLN1] | 3.27 ± 0.15 | 3.56 ± 0.41
NSKPCISLNGPLSTSRHVMAPVMA [ADAMTS4] | 2.83 ± 0.39 | 3.12 ± 0.19
ALRKIIKTLAVKNEEIQSFIYSLK [FSD1] | 2.87 ± 0.45 | 2.89 ± 0.42
TGTSNTTAIKSIEFARKGSCFLIN [RBBP5] | 2.42 ± 0.26 | 2.42 ± 0.22
LSELYEESSDLQMDVMPGEGDLPQ [EID1] | 5.42 ± 0.47 | 5.12 ± 0.47

Sequence | protein stability index (treatment: DMSO) | protein stability index (treatment: MLN4924 1 uM, 8 h)
CKDFLCQFCAQRFGRKDHLTRHTK [PLAGL1] | 2.63 ± 0.25 | 3.09 ± 0.64
KMDFKTNILLKNLVTIARKASLWQ [TRIM43] | 2.7 ± 0.49 | 2.62 ± 0.92
LENDTISKQLTLEQLRREKIDLEN [CCDC6] | 4.96 ± 0.27 | 4.88 ± 0.23
RHRQEVLCKEMVPLAEQTPLTLQS [ZSCAN9] | 4.31 ± 0.18 | 4.21 ± 0.077
NCVSSVYLYYDPDYSFLSLGVYSA [ATE1] | 3.23 ± 0.41 | 3.27 ± 0.11
RAQYDELARKNREELDKYWSQQIE [KRT18] | 3.43 ± 0.27 | 3.97 ± 0.85
QPVPNTTEPDYKSKDWVFLNYTYK [STK38L] | 3.33 ± 0.63 | 3.14 ± 0.31
EALAVLEPYARLPPHKHVARPTEV [TRIB3] | 2.72 ± 0.36 | 2.77 ± 0.2
TAGLLREQVAQLKQKVMTHVSNGC [JUNB] | 3.25 ± 0.2 | 3.25 ± 0.32
YNIRTDSWTTVTSMTTPRCYVGAT [KLHL12] | 2.44 ± 0.23 | 2.67 ± 0.33
NAVRQNGQLVRNDSLWHRSDSAPR [MFF] | 4.01 ± 0.25 | 4.07 ± 0.21
HNSINQSLDESVIYGPGNLSTNNN [SLC2A12] | 4.68 ± 0.34 | 4.7 ± 0.055
RFRRFRFQEAAGPREALSRLQELC [ZNF263] | 2.6 ± 0.48 | 2.58 ± 0.45
FLLSVYAPGSSVEYQCQNLYQLEG [CFHR2] | 2.75 ± 0.48 | 2.52 ± 0.44
LGSDDEEQEDPADYCKGGYHPVKI [SRPK2] | 4.81 ± 0.31 | 4.67 ± 0.31
RELRCKVFPIKHYQDKIRPYIQLP [TRIB1] | 2.15 ± 0.42 | 2.32 ± 0.1
DLISKSFQGSQGRAYLFNSVVNVG [YPEL3] | 2.16 ± 0.22 | 2.11 ± 0.19
EDDDCDDDDDDDAQILPSRVQGGC [DRICH1] | 5.47 ± 0.22 | 5.43 ± 0.11
VEKNEHCIENNIDLQVNRNFSLAT [R3HDM1] | 4 ± 0.23 | 3.93 ± 0.31
MLQKPKSVKLRALRSPRKFGVAGR [DFFB] | 2.94 ± 0.27 | 3.26 ± 0.35
